Experimental data: paper PMC6049929, “Exchange of functional domains between a bacterial conjugative relaxase and the integrase of the human adeno-associated virus”

Experiments:
[1] = target: TrwC/Rep chimera (untagged) (plasmid R388 / human adeno-associated virus (AAV)) (UniProt P03132); assay: fluorescence polarization; conditions: EMSA: 10 mM Hepes-KOH pH 7.5, 10 mM KCl, 3.3 mM MgCl2, 1 mM EDTA, 2.5 mM DTT, 400 ng poly(dI-dC), 15 mM (Rep68) or 75 mM (chimera) NaCl, room temperature 20 min
[2] = target: His-TrwC/Rep chimera (plasmid R388 / human adeno-associated virus (AAV)) (UniProt P03132); assay: EMSA; conditions: EMSA: 10 mM Hepes-KOH pH 7.5, 10 mM KCl, 3.3 mM MgCl2, 1 mM EDTA, 2.5 mM DTT, 400 ng poly(dI-dC), 15 mM (Rep68) or 75 mM (chimera) NaCl, room temperature 20 min
[3] = target: His-TrwC/Rep chimera (plasmid R388 / human adeno-associated virus (AAV)) (UniProt P03132); assay: competition; conditions: EMSA: 10 mM Hepes-KOH pH 7.5, 10 mM KCl, 3.3 mM MgCl2, 1 mM EDTA, 2.5 mM DTT, 400 ng poly(dI-dC), 15 mM (Rep68) or 75 mM (chimera) NaCl, room temperature 20 min
[4] = target: TrwC/Rep chimeric protein (N-terminal relaxase domain of R388 TrwC fused to the C-terminal domain of AAV2 Rep68) (bacterial plasmid R388 (E. coli) | adeno-associated virus 2 (AAV2)) (UniProt Q47673); assay: AUC; sedimentation velocity, 20°C, 492 nm; 3.32 μM TrwC/Rep chimera with 0.83 μM 5' 6-carboxyfluorescein oriTw(34-mer) ssDNA (protein/DNA 4:1); oligomer size from the theoretical S of a globular complex
His-Rep68 = His-Rep68 (human adeno-associated virus (AAV), UniProt P03132 1-536); assay: EMSA; 100 ng protein, 15 mM NaCl; EMSA: 10 mM Hepes-KOH pH 7.5, 10 mM KCl, 3.3 mM MgCl2, 1 mM EDTA, 2.5 mM DTT, 400 ng poly(dI-dC), 15 mM (Rep68) or 75 mM (chimera) NaCl, room temperature 20 min; FP: 25 mM HEPES pH 7.0, 200 mM NaCl, 25 C; AUC: 25 mM Tris-HCl pH 7.9, 200 mM NaCl, 1 mM TCEP, 20 C; conditions: protein: recombinant, tags: N-terminal His (pET15b, PreScission site)

With “AGCGCACCGAAAGGTGCGTATTGTCTATAGCCCA [oriTw 34-mer (oriTw(25+8) plus 5' dA)]” the Kd [1] was 16 nM.

Molecule “GCGCACCGAAAGGTGCGTATTGTCTATAGCCCA [oriTw(25+8)]” has a binding signal [2] of 49 % shifted and a binding signal [3] of 24 % shifted.

For “TrwC/Rep chimeric protein (N-terminal relaxase domain of R388 TrwC fused to the C-terminal domain of AAV2 Rep68) (from UniProt Q47673 2-293; P03132 209-536) (enzyme)”, the stoichiometry N [4] was > 6 subunits.

B1: AAV ori RBSmut (dsDNA)
DNA 1: CTAGATGATGGAGTTGGCCACTCCCTCTCTCCTCCCTCCCTCCCTCACTG
DNA 2: TCGACAGTGAGGGAGGGAGGGAG
B1: no binding (His-Rep68; label: 32P 5' end, top strand).

B2: oriTw(25+8) (ssDNA)
DNA: GCGCACCGAAAGGTGCGTATTGTCTATAGCCCA
B2: no binding (His-Rep68; label: 32P, inverted repeat IR2).
